These results are taken from US20080166364A1 (COVX TECHNOLOGY IRELAND, published 2008).

No end group written: not given here.

The target in experiment [1] is T1, human angiopoietin-2 protein (human, UniProt O15123 19-496).
T1 construct: bought; also called Ang-2; Ang2
T1 sequence (looked up): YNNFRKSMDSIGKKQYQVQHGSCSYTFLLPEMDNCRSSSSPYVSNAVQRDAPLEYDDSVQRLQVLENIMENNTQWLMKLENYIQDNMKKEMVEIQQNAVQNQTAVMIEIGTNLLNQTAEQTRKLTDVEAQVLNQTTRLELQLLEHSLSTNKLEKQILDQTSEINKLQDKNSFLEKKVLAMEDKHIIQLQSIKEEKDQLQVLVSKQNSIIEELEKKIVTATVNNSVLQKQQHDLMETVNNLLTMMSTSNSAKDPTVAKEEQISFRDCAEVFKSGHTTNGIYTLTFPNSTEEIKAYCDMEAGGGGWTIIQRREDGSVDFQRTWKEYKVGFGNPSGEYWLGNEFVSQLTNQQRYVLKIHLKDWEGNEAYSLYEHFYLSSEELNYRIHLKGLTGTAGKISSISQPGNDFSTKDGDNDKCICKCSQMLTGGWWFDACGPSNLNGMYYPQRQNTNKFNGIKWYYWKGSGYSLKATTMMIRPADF
Briefly: competitive ELISA, coated Ang-2, 0.25 nM hTie-2-Fc; peptide alone. On the procedure:
For competitive ELISA, human angiopoietin-2 protein and Tie-2-Fc (R&D Systems) were reconstituted without carrier protein. Mouse anti-human Tie-2 (Pharmingen) was used as the primary antibody and goat anti-mouse-IgG1-HRP (Pierce) was used as the secondary antibody. TMB substrate from Pierce was used.
High-binding half-well plates were coated with Ang-2 (100 ng/well) in 50 μl PBS and incubated at 4° C. overnight. Plates were washed three times with washing buffer (0.1% Tween 20, PBS, pH 7.4) and blocked with Superblock (Scytek), 100 μl/well at room temperature (“RT”) for 1 hour. After removing the blocking solution, 50 μl of an Ang-2 binding peptide compound (1 uM and 5× serial dilution) in the presence of 0.25 nM hTie-2-Fc using Superblock as diluent was added and incubated at RT for 2 hours. Plates were washed 3 times with washing buffer. Then, 50 ul of 0.1 ug/ml mouse anti-human Tie-2 diluted in Superblock added and incubated at RT for 1 hour. Following incubation, 50 ul of 1:5,000 dilution of goat anti-mouse IgG-HRP in Superblock was then added and incubated at RT for one hour. After washing 3 times, 50 μl (25 μl TMB+25 μl H₂O₂) was added, and incubated for 3-5 minutes. Color development was monitored and stopped with 25 μl of 2 M H₂SO₄. OD450 nm with a correction wavelength of 540 nm was measured.

Experiment [2] deals with T1, human angiopoietin-2 protein. Briefly: reverse competitive ELISA, coated Tie-2-Fc, 0.83 nM Ang-2; peptide printed without linker, column headed P. On the procedure: For reverse competition ELISA, human Tie-2-Fc, angiopoietin-2 protein, biotinylated anti-human Ang-2 antibody, and streptavidin HRP (R&D Systems) and TMB substrate from Pierce were used.
High-binding half-well plates were coated with Tie-2-Fc (50 ng/well) in 50 μl PBS and incubated at 4° C. overnight. Plates were washed three times with washing buffer (0.1% Tween 20, PBS, pH 7.4) and blocked with Superblock, 150 μl/well at RT for 1 hour. Plates were washed three times. Following washing, 50 μl of an Ang-2 binding peptide compound (50 nM, 5× serial dilution) in the presence of 50 ng/ml (0.83 nM) Ang-2 in Superblock were added and incubated at RT for 1 hour. Plates were washed 3 times, 50 μl of 1 μg/well biotinylated anti-Ang-2 detection antibody in Superblock was added and incubated at RT for 2 hours. Plates were washed 3 times, and 50 μl of streptavidin HRP (1:200 dilution in Superblock) was added at RT for 20 minutes. Plates were washed 3 times, and 50 μl (25 μl TMB+25 μl H₂O₂) substrate solution was added and incubated for 20-30 minutes. Color development was stopped with 25 μl of 2 M H₂SO₄. OD450 nm with a correction wavelength of 540 nm was measured.
Background: An ELISA detects its analyte on a solid surface through an enzyme-linked reagent.

By IC50 is commonly meant the concentration that gives 50% inhibition. Read a high IC50 as lower potency. Regarding QKYQPLDELDKTLYDQFMLQQG-NH2 (not fully specified (N-terminus); also: N-term acyl cap, acyl not given here, not conjugated to linker or antibody) [Compound 21: Ang-2 binding peptide alone], the half-inhibitory concentration (IC50) in experiment [1] is 0.0258 µM; in experiment [2], 0.0364 µM.

The molecule QNYQPLDELDKTLYDQFMLQQG-NH2 (not fully specified (N-terminus); also: N-term acyl cap, acyl not given here, not conjugated to linker or antibody) [Compound 23: Ang-2 binding peptide alone] had an IC50 in experiment [1] of 0.0278 µM.

In the case of QXYQPLDELDKTLYDQFMLQQG (not fully specified; N-term acyl cap; C-term NH2 cap; AcK at 2, not conjugated to linker or antibody) [Compound 22: Ang-2 binding peptide alone], the IC50 in experiment [2] was 0.0144 µM.
